Where a chain is given by its changes, count along the chain named.

The target of experiment [1] is T1, Biotinylated His14-Avi-bdSUMO-tagged Nup98^716-866 (Xenopus tropicalis, UniProt A0A1B8XZT4, biotin on the Avi-tag).
T1 construct: also called Nup98 NPC anchor domain
As to the kind of experiment: pull-down; biotinylated His14-Avi-bdSUMO-Nup98^716-866 immobilized on Streptavidin agarose; GFP-tagged TP377 bound without or with an equimolar amount or fivefold excess of nanobody competitor; elution by cleavage of the bdSUMO tag; SDS-PAGE, Coomassie. The settings on record: both partners purified.

In experiment [2] the target is T2, Nup98 in nuclear pore complexes of Xenopus laevis XL177 cells (Xenopus laevis XL177 cells, UniProt A0A8J1MFV7).
T2 construct: Xenopus laevis Nup98 within intact NPCs; also called (x)Nup98; source: endogenous, digitonin-permeabilized Xenopus laevis XL177 cells
The experiment in a line: immunostaining of cells or tissue; digitonin-permeabilized Xenopus laevis XL177 cells, 1-10 nM fluorescent nanobody 15 min on ice, washed, then fixed; confocal laser scanning microscopy. The settings on record: one partner purified.

Experiment [3] has as its target T3, Nup98 (endogenous, Xenopus egg extract) (Xenopus laevis (egg extract), UniProt A0A8J1MFV7).
T3 construct: Xenopus Nup98, FG-repeat nucleoporin; source: endogenous, Xenopus egg extract (high-speed supernatant)
As to the kind of experiment: affinity purification with mass spectrometry; biotinylated tagged nanobody on magnetic Streptavidin beads, Xenopus egg extract (HSS) 1 h at 4°C, washes in S250 and in 50 mM Tris/HCl pH 7.5, 300 mM NaCl, 0.05% Tween-20, RanQ69L•GTP wash, elution by SUMOStar protease; SDS-PAGE, Coomassie, bands identified by mass spectrometry. The settings on record: one partner purified.

B1: untagged TP377 produced in the oxidative periplasm (VHH)
VHH: QVQLVESGGGPVEAGGSLRLSCAASGRSFSNSVMAWFRQAPGKEREFLSVLNWSSGRTSIADSVKGRFTMSRDPAKITVYLQMNGLKPEDTAVYYCAASNRGSLYTLDNQNRYEDWGQGTQVTVSS
notes: also called oxidized, disulfide bond-stabilized nanobody; source: E. coli BLR periplasm
For B1, the binding result in experiment [1] is on record as “binds”.

B2: untagged TP377 produced in the reductive cytoplasm of E. coli BLR (VHH)
VHH: B1 VHH
notes: also called reduced variant; source: E. coli BLR cytoplasm
For the molecule B2, the binding result in experiment [1] was “binds”.

B3: 3x Alexa Fluor 488-labeled TP377 (VHH)
VHH: B1 VHH with S7C, S71C
notes: also called 3xCys; source: E. coli cytoplasm, purified (Ni2+ chelate, bdNEDP1 cleavage), labeled with Alexa Fluor 488 maleimide; not shown: His14-bdNEDD8, N-terminal, cleaved
Regarding B3, the binding result in experiment [1] was “binds”.

B4: anti-Nup98 nanobody TP377 carrying a single N-terminal Alexa Fluor 647 maleimide (VHH)
VHH: B1 VHH
notes: not shown: His14-bdNEDD8, N-terminal, cleaved
Turning to B4, in experiment [2], the binding result was “binds”.

B5: Biotinylated His14-Avi-(GlySer)9-SUMOStar-(GlySer)9-tagged anti-Nup98 nanobody TP377 (VHH)
VHH: B1 VHH
notes: source: E. coli cytoplasm, co-expressed with BirA, purified (Ni2+ chelate, imidazole elution); not shown: His14, N-terminal, kept; (GlySer)9-scSUMOStar-(GlySer)9, N-terminal, kept
As for B5, the binding result in experiment [3] is on record as “binds”.

B6: unlabeled TP377 (competitor in Figure 5—figure supplement 1c) (VHH)
VHH: B1 VHH
B6: the binding result in experiment [1] is listed as “binds”.

B7: untagged TP377 produced in the mildly oxidative cytoplasm of E. coli SHuffle (VHH)
VHH: B1 VHH
notes: also called SHuffle-expressed TP377; source: E. coli SHuffle cytoplasm; not shown: His14-bdNEDD8, N-terminal, cleaved
As for B7, the binding result in experiment [1] is recorded as “binds”.

For the origin of these results see PMC4755751 (eLife, 2015).
